In publication PMC10942467 (bioRxiv, 2024):

Target: 6X His-Raf1 (purified recombinant) (UniProt P04049 1-648, fluorescent label in the MST (kind and site not stated))
Test: MST

Kd: 183 nM
B1: GLS (purified recombinant) (enzyme)
chain: HPWWGGGGWPAEPLARGLSSSPSEILQELGKGSTHPQPGVSPPAAPAAPGPKDGPGETDAFGNSEGKELVASGENKIKQGLLPSLEDLLFYTIAEGQEKIPVHKFITALKSTGLRTSDPRLKECMDMLRLTLQTTSDGVMLDKDLFKKCVQSNIVLLTQAFRRKFVIPDFMSFTSHIDELYESAKKQSGGKVADYIPQLAKFSPDLWGVSVCTVDGQRHSTGDTKVPFCLQSCVKPLKYAIAVNDLGTEYVHRYVGKEPSGLRFNKLFLNEDDKPHNPMVNAGAIVVTSLIKQGVNNAEKFDYVMQFLNKMAGNEYVGFSNATFQSERESGDRNFAIGYYLKEKKCFPEGTDMVGILDFYFQLCSIEVTCESASVMAATLANGGFCPITGERVLSPEAVRNTLSLMHSCGMYDFSGQFAFHVGLPAKSGVAGGILLVVPNVMGMMCWSPPLDKMGNSVKGIHFCHDLVSLCNFHNYDNLRHFAKKLDPRREGGDQRVKSVINLLFAAYTGDVSALRRFALSAMDMEQRDYDSRTALHVAAAEGHVEVVKFLLEACKVNPFPKDRWNNTPMDEALHFGHHDVFKILQEYQVQYTPQGDSDNGKENQTVHKNLDGLL
